# Results from PMC6586323, “Comparative analysis of the metal-dependent structural and functional properties of mouse and human SMP30” (PLoS ONE, 2019).
# B1: HuSMP30 (Homo sapiens) (protein)
# chain: MSSIKIECVLPENCRCGESPVWEEVSNSLLFVDIPAKKVCRWDSFTKQVQRVTMDAPVSSVALRQSGGYVATIGTKFCALNWKEQSAVVLATVDNDKKNNRFNDGKVDPAGRYFAGTMAEETAPAVLERHQGALYSLFPDHHVKKYFDQVDISNGLDWSLDHKIFYYIDSLSYSVDAFDYDLQTGQISNRRSVYKLEKEEQIPDGMCIDAEGKLWVACYNGGRVIRLDPVTGKRLQTVKLPVDKTTSCCFGGKNYSEMYVTCARDGMDPEGLLRQPEAGGIFKITGLGVKGIAPYSYAG
# B2: MoSMP30 (Mus musculus) (protein)
# chain: MSSIKVECVLRENYRCGESPVWEEASQSLLFVDIPSKIICRWDTVSNQVQRVAVDAPVSSVALRQLGGYVATIGTKFCALNWENQSVFVLAMVDEDKKNNRFNDGKVDPAGRYFAGTMAEETAPAVLERHQGSLYSLFPDHSVKKYFDQVDISNGLDWSLDHKIFYYIDSLSYTVDAFDYDLQTGQISNRRIVYKMEKDEQIPDGMCIDAEGKLWVACYNGGRVIRLDPETGKRLQTVKLPVDKTTSCCFGGKDYSEMYVTCARDGLNAEGLLRQPDAGNIFKITGLGVKGIAPYSYAG
# Experiments:
# Experiment in all cases: purified protein
# [1] = substrate: CCOP(=O)(OCC)SCCSCC; type: biochemical, Homo sapiens; details: 1 mM Ca2+, 50 mM Tris-HCl pH 8.0, 0.1 mM DTNB, substrate range 1-10 mM
# [2] = substrate: O=C1CCCS1; type: biochemical, Homo sapiens; details: 1 mM Ca2+, 50 mM Tris-HCl pH 7.0, 0.1 mM DTNB, substrate range 1-10 mM
# [3] = substrate: CCOP(=O)(OCC)SCCSCC; type: biochemical, Mus musculus; details: 1 mM Ca2+, 50 mM Tris-HCl pH 8.0, 0.1 mM DTNB, substrate range 1-10 mM
# [4] = substrate: O=C1CCCS1; type: biochemical, Mus musculus; details: 1 mM Ca2+, 50 mM Tris-HCl pH 7.0, 0.1 mM DTNB, substrate range 1-10 mM
protein,measurement,setting,value
B1,Km,[1],17.45 ± 5 mM
same,Vmax,[1],0.0357 µM/min
same,kcat,[1],0.00808 s⁻¹
same,kcat/Km,[1],0.467 M⁻¹ s⁻¹
same,Km,[2],19.8 ± 2.9 mM
same,Vmax,[2],0.453 µM/min
same,kcat,[2],0.102 s⁻¹
same,kcat/Km,[2],5.17 M⁻¹ s⁻¹
B2,Km,[3],3.57 ± 1.5 mM
same,Vmax,[3],0.0085 µM/min
same,kcat,[3],0.00193 s⁻¹
same,kcat/Km,[3],0.533 M⁻¹ s⁻¹
same,Km,[4],39.49 ± 7.9 mM
same,Vmax,[4],0.286 µM/min
same,kcat,[4],0.0647 s⁻¹
same,kcat/Km,[4],1.63 M⁻¹ s⁻¹
